This passage reports ratio to parent results from article PMC5339894, “G196 epitope tag system: a novel monoclonal antibody, G196, recognizes the small, soluble peptide DLVPR with high affinity” (Scientific Reports, 2017).

B1: mAb G196 [mouse] / biotin-SGSGSDLVPRG [modified: biotin on the N-terminus; biotin on the N-terminus] (parent complex)
chain 1: QVKLQESGAELVKPGASVKLSCKASGYTFTNYWMHWVKLRPGQGFEWIGEINPSNGGSNYNEKFKRKATLTVDKSSSTAYMQLSSLTSEDSAVFYCSIWDSYFDYWGQGTTLTVSSAKTTPPSVYPLAPGSAAQTNSMVTLGCLVKGYFPEPVTVTWNSGSLSSGVHTFPAVLQSDLYTLSSSVTVPSSPWPSETVTCNVAHPASSTKVDKKIVPRDC
chain 2: NIVMTQSPKSMSMSVGERVTLTCKASENVVTYVSWYQQKPEQSPKLLIYGASNRYTGVPDRFTGSGSATDFTLTISSVQAEDLADYHCGQGYSYPYTFGGGTKLEIKRADAAPTVSIFPPSSEQLTSGGASVVCFLNNFYPKDINVKWKIDGSERQNGVLNSWTDQDSKDSTYSMSSTLTLTKDEYERHNSYTCEATHKTSTSPIVKSFNRNEC
chain 3: SGSGSDLVPRG

The variants in this assay derive from B1. The assay can be described thus: permutation ELISA (densitometry of spots); parent: 1; read off a plot. For orientation: ELISA stands for enzyme-linked immunosorbent assay.
Take chain 3 V8D: the ratio to parent is roughly 0.03. As for chain 3 V8F, the figure is roughly 0.04; as for chain 3 V8A, roughly 0.82. For chain 3 V8T, the ratio to parent is roughly 0.95. With chain 3 V8E the figure was roughly 0.07; with chain 3 V8P, roughly 0.04. As for chain 3 V8W, the figure is roughly 0.03; as for chain 3 V8K, roughly 0.05.

Take chain 3 V8Y: the ratio to parent was roughly 0.05. As for chain 3 V8N, the figure is roughly 0.11.

Consider chain 3 V8R, for which the ratio to parent was roughly 0.07.

As for chain 3 V8C, the ratio to parent was roughly 0.08. As for chain 3 V8G, the figure is roughly 0.03; as for chain 3 V8M, roughly 0.09. As for chain 3 V8Q, the figure is roughly 0.16; as for chain 3 V8L, roughly 0.13.

For the variant chain 3 V8H, the ratio to parent was roughly 0.08.

As for chain 3 V8I, the ratio to parent was roughly 0.96. As for chain 3 V8S, the figure is roughly 0.44; as for chain 3 D6C, roughly 0.26; as for chain 3 D6Q, roughly 0.48. As for chain 3 D6I, the figure is roughly 0.08; as for chain 3 D6A, roughly 0.38; as for chain 3 D6E, roughly 1. As for chain 3 D6K, the figure is roughly 0.05; as for chain 3 D6Y, roughly 0.11; as for chain 3 D6S, roughly 0.95. Regarding chain 3 D6V, the ratio to parent was roughly 0.04. Turning to chain 3 D6F, the ratio to parent is roughly 0.09.

chain 3 D6H: the ratio to parent was roughly 0.15. Take chain 3 D6W: the ratio to parent was roughly 0.12.

On to chain 3 D6R, for which the ratio to parent was roughly 0.07. Take chain 3 D6N: the ratio to parent was roughly 0.25. With chain 3 D6G the figure was roughly 0.7; with chain 3 D6P, roughly 0.16. Turning to chain 3 D6L, the ratio to parent was roughly 0.06. As to chain 3 D6M, the ratio to parent was roughly 0.11.

Turning to chain 3 D6T, the ratio to parent was roughly 0.19. As for chain 3 L7G, the ratio to parent is roughly 0.04.

chain 3 L7D: the ratio to parent is roughly 0.11. Turning to chain 3 L7Q, the ratio to parent was roughly 0.07.

For chain 3 L7R, the ratio to parent is roughly 0.13. For chain 3 L7Y, the ratio to parent is roughly 0.15. In the case of chain 3 L7H, the ratio to parent is roughly 0.62. Take chain 3 L7C: the ratio to parent is roughly 0.06. With chain 3 L7E the figure was roughly 0.08; with chain 3 L7F, roughly 0.72; with chain 3 L7S, roughly 0.06.

Take chain 3 L7I: the ratio to parent is roughly 0.99. As for chain 3 L7V, the figure is roughly 0.11; as for chain 3 L7M, roughly 0.84. As for chain 3 L7N, the ratio to parent was roughly 0.6. As for chain 3 L7P, the figure is roughly 0.02; as for chain 3 L7W, roughly 0.05; as for chain 3 L7T, roughly 0.11.

chain 3 L7A: the ratio to parent is roughly 0.08. For the variant chain 3 L7K, the ratio to parent is roughly 0.1. For the variant chain 3 R10H, the ratio to parent was roughly 0.38.

For chain 3 P9H, the ratio to parent is roughly 0.74.

As for chain 3 P9E, the ratio to parent was roughly 0.86. As for chain 3 P9V, the ratio to parent is roughly 0.87. As for chain 3 P9N, the ratio to parent is roughly 0.76. chain 3 P9F: the ratio to parent was roughly 0.86. As for chain 3 P9D, the figure is roughly 0.78; as for chain 3 P9K, roughly 0.4.

For the variant chain 3 P9G, the ratio to parent was roughly 0.67.

Take chain 3 P9M: the ratio to parent is roughly 0.82.

On to chain 3 P9I, for which the ratio to parent is roughly 0.85. As for chain 3 P9S, the figure is roughly 0.81.

As to chain 3 P9R, the ratio to parent is roughly 0.74. As for chain 3 P9C, the figure is roughly 0.78; as for chain 3 P9W, roughly 0.82; as for chain 3 P9Q, roughly 0.72. As for chain 3 P9L, the figure is roughly 0.72; as for chain 3 P9A, roughly 0.98; as for chain 3 P9Y, roughly 0.89. Take chain 3 P9T: the ratio to parent was roughly 0.59.
